Measurements: WO2015129919A1 (dated 2015)
Substitutions are numbered along the chain they refer to.

B1: monoclonal antibody produced by mouse-mouse hybridoma 422 (antibody, V domains shown)
VH: VQLQQSGPEVVKPGPSLRMSCKASGYFFTGNSMNWVKKTHGRSLEWIGLIDLSNGETRFNQKFKGKATLTVDKSSGTAYMELLNLTSEDSAVYYCASRSAMIMPCFSHWGQGTLVTVSA
VL: DIVMTQSHNFMSTSIGDRVNITCKASQDVATAVAWFQQKPGQSPKLLIYWTSTRHTGVPDRFTGSGYGTDFTLTISHVQSEDLADYFCQQYDTYPYTFGGGTKLEIK
notes: Mouse IgG from the hybridoma; also called antibody clone 422
B2: monoclonal antibody produced by mouse-mouse hybridoma 303 (antibody, V domains shown)
VH: VQLQQPGAEFVKPGTSVKLSCKASGYNFTRYWINWVKLRPGQGLEWIGNIYPATNGINYNEKFKSKATLTVDTFSSTAYMQLSSLASEDSGLYYCARCKTMLSRCAWFPYWGQGTLVTVSA
VL: DIQMTQTTSSLSASLGDRVTINCRASQDISNYLNWYQQKPDGTVKLLIYDTSRLHSRVPSRFSGSGSGTDYSLTISNLEQEDIATYFCQQGNMLPWTFGGGTKLEIK
notes: Mouse IgG from the hybridoma
B3: monoclonal antibody produced by mouse-mouse hybridoma 419 (antibody, V domains shown)
VH: IQLQQSGPELVKPGASVKVSCKAFGYAFTRHNMYWVKQRHGKCLEWIGYIDPFNGGTSYNQKFKGKATLTVDKSSSTAYMHLNSLTSEDSAVYYCARVYGNYAWFAYWGQGTLVTVSA
VL: DIVMTQSHKFMSTSVGDRVSITCKASQDVSTAVAWYQQIPGQSPKLLIYSSSYRYTGVPDRFTGSGSGTDFTFTISSVQAEDLAVYYCQQHYNTPWTFGGGTKLEIK
notes: Mouse IgG from the hybridoma
B4: antibody clone 402 human-mouse chimeric antibody (antibody, human IgG1, kappa, V domains shown)
VH: QVKLQQSGPELVKPGASVKVSCTASGYAFTQYNLYWVKLRHGKCPKWIGSIDPYIGGTTYNQQFKDKVTLTVDKSSSTAYLHLNSLTSEDSAIYYCARWWDGYFDVWGAGTTVTVSS
VL: QIVLTQSPAIMSASLGERVTLTCTASSSVISRYLHWYQVKPGSSPKLWIYSTSNLASGVPTRFSGSGSGTSYSLTISNMEAEDAATYYCHQYHRSPLTFGAGTKLELTR
notes: Human IgG1 heavy chain constant region and human kappa constant region, expressed in Expi293F cells; also called c402 mAb
B5: monoclonal antibody produced by mouse-mouse hybridoma 402 (antibody, V domains shown)
VH: VKLQQSGPELVKPGASVKVSCTASGYAFTQYNLYWVKLRHGKCPKWIGSIDPYIGGTTYNQQFKDKVTLTVDKSSSTAYLHLNSLTSEDSAIYYCARWWDGYFDVWGAGTTVTVSS
VL: QIVLTQSPAIMSASLGERVTLTCTASSSVISRYLHWYQVKPGSSPKLWIYSTSNLASGVPTRFSGSGSGTSYSLTISNMEAEDAATYYCHQYHRSPLTFGAGTKLELT
notes: Mouse IgG from the hybridoma
B6: monoclonal antibody produced by mouse-mouse hybridoma 430 (antibody, V domains shown)
VH: B5 VH with V1I, K2Q, L10V, A15T, K18R, T57A, T58N
VL: B5 VL with L21M, I30S, S31F, T61S, F63I, S73F
notes: Mouse IgG from the hybridoma; also called antibody clone 430; 430 antibody
B7: monoclonal antibody produced by mouse-mouse hybridoma 205 (antibody, V domains shown)
VH: VKLQQSGPELVKPGASVKMSCKASGYTFTSYVMHWVKQKPGQGLEWIGYINPYNDGTKYNEKFKGKATLTSDKSSSTAYMELSSLTSEDSAVYYCARRKAWFAYWGQGTLVTVSA
VL: DIQMTQSPASQSASLGESVTITCLASQTIGTWLAWYQQKPGKSPQLLIYAATSLADGVPSRFSGSGSGTKFSFKISSLQAEDFVSYYCQQLYSTPLTFGGGTKLEIK
notes: Mouse IgG from the hybridoma

Experiments:
[1] = biological target: T1, SLC6A6 (solute carrier family 6 (neurotransmitter transporter, taurine), member 6), human, native on the cell … (human, UniProt P31641 1-620); experiment: flow cytometry on HCT116 cells
T1 construct: also called native SLC6A6; taurine transporter
T1 sequence: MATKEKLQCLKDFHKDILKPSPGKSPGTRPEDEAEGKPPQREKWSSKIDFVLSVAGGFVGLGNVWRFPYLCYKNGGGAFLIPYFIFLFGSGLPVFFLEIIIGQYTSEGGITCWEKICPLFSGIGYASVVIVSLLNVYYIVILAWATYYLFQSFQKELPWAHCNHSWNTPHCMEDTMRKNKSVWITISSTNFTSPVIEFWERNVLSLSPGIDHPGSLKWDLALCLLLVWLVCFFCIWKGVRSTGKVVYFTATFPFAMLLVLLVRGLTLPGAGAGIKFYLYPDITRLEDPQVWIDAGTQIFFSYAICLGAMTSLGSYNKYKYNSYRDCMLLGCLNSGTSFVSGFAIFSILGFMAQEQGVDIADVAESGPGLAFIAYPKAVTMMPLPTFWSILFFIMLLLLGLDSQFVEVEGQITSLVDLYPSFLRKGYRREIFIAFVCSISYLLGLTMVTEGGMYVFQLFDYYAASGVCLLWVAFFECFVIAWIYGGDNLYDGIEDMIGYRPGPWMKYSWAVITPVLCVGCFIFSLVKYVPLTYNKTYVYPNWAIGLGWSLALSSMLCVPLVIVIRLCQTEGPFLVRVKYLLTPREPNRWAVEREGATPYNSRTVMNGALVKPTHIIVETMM

[2] = biological target: T1, SLC6A6 (solute carrier family 6 …); experiment: flow cytometry on 293T cells (express SLC6A6), antibody 10 ug/mL
[3] = biological target: T1, SLC6A6 (solute carrier family 6 …); experiment: flow cytometry on HCT116 cells, antibody 10 ug/mL
[4] = biological target: T2, SLC6A6 extracellular region partial protein (E. coli recombinant, amino acid residues 143 to 216, C-terminal … (human, UniProt P31641 143-216)); experiment: competition inhibition test; 402 at 10 ug/mL pre-incubated with recombinant SLC6A6 extracellular region partial protein at 15 ug/mL, read out by immunofluorescence on HCT116 cells
T2 construct: also called partial protein of the extracellular region of SLC6A6; SLC6A6 partial protein for screening
T2 sequence: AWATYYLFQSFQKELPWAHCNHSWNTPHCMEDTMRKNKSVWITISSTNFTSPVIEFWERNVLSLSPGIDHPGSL

[5] = biological target: T1, SLC6A6 (solute carrier family 6 …); experiment: immunohistochemistry on breast cancer and uterine cancer tissue sections

Binder | binding result [1] | also measured
B1 | binds | 
B2 | binds | 
B3 |  | binding result [2]: binds
B4 |  | binding result [3]: binds
B5 | binds | binding result [4]: binds
B6 | binds | 
B7 |  | binding result [5]: binds
